The target of experiment [1] is human Claudin-6 (CLDN6) (human) (UniProt P56747). In words: FACS, limiting dilution, OV90 cells.
Experiment [2] shares this target. In words: FACS, limiting dilution, ARK2 cells.
Experiment [3] shares this target. In words: FACS, limiting dilution, UMUC4 cells.

Positions count from the first letter of the chain named.

B1: AB S7 (antibody, V domains shown)
VH: QVQLVQSGAEVKKPGASVKMSCKASGYTFTTYTIHWVRQAPGQGLEWIGFINPSSGYTEYAQKFQGRVTLTADKSTSTVYMELSSLRSEDTAVYFCANGDYYVAYWGQGTLVTVSS
VL: DIQLTQSPSSLSASVGDRVTMTCTASSSVSSTYFHWYQQKPGKAPKLWIYSTSNLASGVPSRFSGSGSGTDYTLTISSMQPEDAATYYCHQYHRSPLTFGQGTKLEIK
In the case of B1, in experiment [1], the FACS signal at 0.32 nM stood at 586, the FACS signal at 1.6 nM is 1910, the FACS signal at 8 nM was 4500 and the FACS signal at 40 nM worked out at 8570. In experiment [1], the FACS signal at 200 nM is 24000 and the FACS signal at 1000 nM stood at 53900. In addition, in experiment [2], the FACS signal at 0.32 nM turned out to be 876, the FACS signal at 1.6 nM was 2350, the FACS signal at 8 nM was found to be 6290 and the FACS signal at 40 nM turned out to be 16000. Moreover, in experiment [2], the FACS signal at 200 nM came to 47000 and the FACS signal at 1000 nM is 78700. In experiment [3], this molecule came in with an FACS signal at 0.32 nM of 1440, an FACS signal at 1.6 nM of 1790, an FACS signal at 8 nM of 3940 and an FACS signal at 40 nM of 7970. In experiment [3], this molecule came in with an FACS signal at 200 nM of 16700 and an FACS signal at 1000 nM of 37300.

B2: AB S12 (antibody, V domains shown)
VH: B1 VH with I34M, A104G
VL: B1 VL
B2: in experiment [1], the FACS signal at 0.32 nM stood at 638, the FACS signal at 1.6 nM is 1260, the FACS signal at 8 nM turned out to be 4630 and the FACS signal at 40 nM worked out at 14600. In experiment [1], this molecule registered an FACS signal at 200 nM of 38300 and an FACS signal at 1000 nM of 83400. For the same molecule, in experiment [2], the FACS signal at 0.32 nM is 1310, the FACS signal at 1.6 nM came to 2080, the FACS signal at 8 nM amounted to 8850 and the FACS signal at 40 nM is 22900. The molecule also displayed an FACS signal at 200 nM in experiment [2] of 62300. In experiment [3], this molecule registered an FACS signal at 0.32 nM of 947, an FACS signal at 1.6 nM of 1910, an FACS signal at 8 nM of 5040 and an FACS signal at 40 nM of 14800. For the same molecule, in experiment [3], the FACS signal at 200 nM worked out at 37500.

B3: AB S8 (antibody, V domains shown)
VH: B1 VH with I34M, F50V, A104G
VL: B1 VL
In experiment [1], B3 registered an FACS signal at 0.32 nM of 834, an FACS signal at 1.6 nM of 6410, an FACS signal at 8 nM of 26700 and an FACS signal at 40 nM of 85900. In experiment [2], the FACS signal at 0.32 nM amounted to 1640, the FACS signal at 1.6 nM was found to be 10400 and the FACS signal at 8 nM turned out to be 42600. In experiment [3], the FACS signal at 0.32 nM worked out at 720, the FACS signal at 1.6 nM was found to be 6220, the FACS signal at 8 nM came to 7200 and the FACS signal at 40 nM was 16600. For the same molecule, in experiment [3], the FACS signal at 200 nM was determined as 32900 and the FACS signal at 1000 nM turned out to be 40500.

B4: AB S10 (antibody, V domains shown)
VH: B1 VH with I34M, F95Y, A104G
VL: B1 VL
With B4, in experiment [1], the FACS signal at 0.32 nM was found to be 862, the FACS signal at 1.6 nM was determined as 4690, the FACS signal at 8 nM came to 16300 and the FACS signal at 40 nM stood at 50400. Moreover, the FACS signal at 200 nM in experiment [1] amounted to 87900. In experiment [2], this molecule showed an FACS signal at 0.32 nM of 2080, an FACS signal at 1.6 nM of 7690, an FACS signal at 8 nM of 27500 and an FACS signal at 40 nM of 68200. In experiment [3], this molecule returned an FACS signal at 0.32 nM of 874, an FACS signal at 1.6 nM of 2540, an FACS signal at 8 nM of 6850 and an FACS signal at 40 nM of 9940. In experiment [3], this molecule gave an FACS signal at 200 nM of 22200 and an FACS signal at 1000 nM of 35100.

B5: AB S9 (antibody, V domains shown)
VH: B1 VH with F50V, E59D, A104G
VL: B1 VL
On to B5, for which, in experiment [1], the FACS signal at 0.32 nM came out at 2940, the FACS signal at 1.6 nM is 14000 and the FACS signal at 8 nM was 48500. Moreover, in experiment [2], the FACS signal at 0.32 nM was 2990, the FACS signal at 1.6 nM came out at 16400 and the FACS signal at 8 nM was found to be 54600. In experiment [3], this molecule showed an FACS signal at 0.32 nM of 1910, an FACS signal at 1.6 nM of 11600, an FACS signal at 8 nM of 19200 and an FACS signal at 40 nM of 23900. Besides, the FACS signal at 200 nM in experiment [3] amounted to 35600.

B6: AB S11 (antibody, V domains shown)
VH: B1 VH with F50V
VL: B1 VL
B6: in experiment [1], the FACS signal at 0.32 nM is 1460, the FACS signal at 1.6 nM is 4950, the FACS signal at 8 nM was 14700 and the FACS signal at 40 nM was 44900. Also, the FACS signal at 200 nM in experiment [1] came to 85600. For the same molecule, in experiment [2], the FACS signal at 0.32 nM came out at 2130, the FACS signal at 1.6 nM is 6100, the FACS signal at 8 nM was found to be 20200 and the FACS signal at 40 nM turned out to be 59400. In experiment [3], this molecule yielded an FACS signal at 0.32 nM of 2350, an FACS signal at 1.6 nM of 2770, an FACS signal at 8 nM of 7000 and an FACS signal at 40 nM of 12800. In experiment [3], this molecule came in with an FACS signal at 200 nM of 19900 and an FACS signal at 1000 nM of 33400.

B7: AB S4 (antibody, V domains shown)
VH: EVQLLESGGGLVQPGGSMRLSCAASGFTFSNYWMNWVRQAPGKGLEWIAQIRLKSDNYATHYTDSVKGRFTISRDDSKSTVYLQMNSLRAEDTGTYYCNDGPPSGSWGQGTLLTVSS
VL: DIQMTQSPSSLSASVGDRVTITCRISENIYSYLAWYQQKPGKAPKLLVYNAKILVEGVPSRFSGSGSGTDFTLTISSLQPEDFGTYYCQHHYTVPWTFGQGTKLEIK
As for B7, in experiment [1], the FACS signal at 0.32 nM was found to be 432, the FACS signal at 1.6 nM came out at 515, the FACS signal at 8 nM turned out to be 1360 and the FACS signal at 40 nM turned out to be 4590. In experiment [1], this molecule had an FACS signal at 200 nM of 15900 and an FACS signal at 1000 nM of 42000. In experiment [2], this molecule returned an FACS signal at 0.32 nM of 354, an FACS signal at 1.6 nM of 438, an FACS signal at 8 nM of 1720 and an FACS signal at 40 nM of 6350. In experiment [2], the FACS signal at 200 nM was determined as 31500 and the FACS signal at 1000 nM came out at 62500. For the same molecule, in experiment [3], the FACS signal at 0.32 nM is 518, the FACS signal at 1.6 nM came to 651, the FACS signal at 8 nM came out at 1300 and the FACS signal at 40 nM stood at 4120. For the same molecule, in experiment [3], the FACS signal at 200 nM was found to be 13500 and the FACS signal at 1000 nM stood at 35000.

B8: AB S1 (antibody, V domains shown)
VH: B7 VH with S79R, N99S
VL: B7 VL
In experiment [1], B8 had an FACS signal at 0.32 nM of 475, an FACS signal at 1.6 nM of 668, an FACS signal at 8 nM of 2390 and an FACS signal at 40 nM of 10500. In addition, the FACS signal at 200 nM in experiment [1] is 43500. In experiment [2], the FACS signal at 0.32 nM turned out to be 466, the FACS signal at 1.6 nM is 1380, the FACS signal at 8 nM came out at 3850 and the FACS signal at 40 nM worked out at 25800. In experiment [2], the FACS signal at 200 nM was 62500. In experiment [3], this molecule came in with an FACS signal at 0.32 nM of 639, an FACS signal at 1.6 nM of 767, an FACS signal at 8 nM of 2330 and an FACS signal at 40 nM of 6680. In experiment [3], the FACS signal at 200 nM worked out at 18700 and the FACS signal at 1000 nM is 41500.

B9: AB S5 (antibody, V domains shown)
VH: B7 VH with I48L, S79R, T95I, N99S
VL: B7 VL
In experiment [1], B9 came in with an FACS signal at 0.32 nM of 558, an FACS signal at 1.6 nM of 1040, an FACS signal at 8 nM of 5220 and an FACS signal at 40 nM of 22500. Also, in experiment [1], the FACS signal at 200 nM was 73300. In experiment [2], this molecule showed an FACS signal at 0.32 nM of 372, an FACS signal at 1.6 nM of 997, an FACS signal at 8 nM of 5560 and an FACS signal at 40 nM of 25600. Also, the FACS signal at 200 nM in experiment [2] is 78800. In experiment [3], this molecule registered an FACS signal at 0.32 nM of 481, an FACS signal at 1.6 nM of 885, an FACS signal at 8 nM of 2340 and an FACS signal at 40 nM of 7080. In experiment [3], this molecule had an FACS signal at 200 nM of 19000 and an FACS signal at 1000 nM of 47200.

B10: AB S6 (antibody, V domains shown)
VH: B7 VH with I48L, A59V, T63A, S79R
VL: B7 VL
B10: in experiment [1], the FACS signal at 0.32 nM turned out to be 467, the FACS signal at 1.6 nM is 791, the FACS signal at 8 nM was 2950 and the FACS signal at 40 nM amounted to 12600. Also, in experiment [1], the FACS signal at 200 nM was 38600 and the FACS signal at 1000 nM came to 76600. In experiment [2], this molecule showed an FACS signal at 0.32 nM of 448, an FACS signal at 1.6 nM of 765, an FACS signal at 8 nM of 3800 and an FACS signal at 40 nM of 14600. This molecule also displayed an FACS signal at 200 nM in experiment [2] of 54100. Further, in experiment [3], the FACS signal at 0.32 nM came out at 1320, the FACS signal at 1.6 nM came out at 1690, the FACS signal at 8 nM is 3300 and the FACS signal at 40 nM was found to be 4120. For the same molecule, in experiment [3], the FACS signal at 200 nM came out at 12500 and the FACS signal at 1000 nM came to 42300.

The values are drawn from patent US20230049752A1 (University of California, published 2023).
